Biological target: the molecule itself
Assay: cryo-EM structure

B1: PilA, major pilin subunit of the Pseudomonas aeruginosa strain K (PaK) Type IV pilus (natural protein)
chain: FTLIELMIVVAIIGILAAIAIPQYQNYVARSEGASALASVNPLKTTVEEALSRGWSVKSGTGTEDATKKEVPLGVAADANKLGTIALKPDPADGTADITLTFTMGGAGPKNKGKIITLTRTAADGLWKCTSDQDEQFIPKGCSR
  binding result: binds
